Here are results for 1 molecule from patent publication US10138280B2, “Polypeptides targeting glycosylated MUC2 proteins, methods of synthesis, their nucleic acids and uses thereof” (INSTITUT PASTEUR, priority 2011, dated 2018).

Experiment [1] relates to human neutrophil (PMN) granules. As to the kind of experiment: Human neutrophil (PMN) granule staining. It counts as cell-based. The method, then: FIG. 14. Staining of individual neutrophiles (white blood cells) in human blood sample. Cy5-MUB70 was incubated on ethanol 100% fixed blood sample. […] (Details are provided on the Figure). […] In particular, granules staining is achieved.
FIG. 15. Staining of individual neutrophiles (white blood cells) purified from fresh human blood sample. Cy5-MUB70 was incubated on PFA 4% fixed neutrophiles (PFA treatment for 15 min, wash 3 times in PBS). Signal was detected as dots distributed in neutrophile cytoplasms. (Staining with Dapi 1:1000 and EB1C5 1:1000 in PBS+10% FCS+0.1% Saponin). […] In particular, granules staining is achieved.
FIG. 29. Identification of Muc2 in neutrophile granules using MUB70-Cy5. Human neutrophil (PMN) granule staining using Cy5-MUB70. PMN were purified from healthy donor blood samples and fixed in the presence of 4% PFA. Fluorescent staining of human colonic mucus was performed by the addition of 1 μg/mL of Cy5-MUB70 (Red) with Dapi (1:100) (Blue) and 1:200 anti-Muc2 antibody (Green). Image acquisition was performed using a fluorescent confocal microscope (see Methods).
FIG. 31. Identification of Muc2 in neutrophile granules. Human neutrophil (PMN) granule staining using Cy5-MUB40-1, Cy5-MUB40-2, Cy5-MUB40-3, Cy5-MUB40-4 peptides. Schematic description of the Cy5-conjugated peptides. PMN were purified from healthy donor blood samples and fixed in the presence of 4% PFA. Fluorescent staining of human colonic mucus was performed by the addition of 1 μg/mL of the Cy5-conjugated peptides (Green) with Dapi (1:100) (Blue) and Phalloidin-RRX (1:1000) (Red). Image acquisition was performed using a fluorescent confocal microscope (see Methods).
The invention has also proven to be useful for the monitoring of neutrophile degranulation events, in particular by using MUB70 and/or MUB40 polypeptides or polypeptides sharing identity with MUB70 and/or MUB40 polypeptides, or fragments thereof, for labelling neutrophile granule(s).

Experiment [2] concerns the target T1, human colonic mucus (Homo sapiens, UniProt Q02817).
T1 construct: Segments of human colon (ascending, descending and sigmoid colon) were obtained from fully informed patients undergoing surgery; from tissue; host or cells: healthy human colon segments (live explants, mucus collected from them, Carnoy- or formol-fixed sections)
As to the kind of experiment: Staining of human colon explants, two-photons microscopy. How it is done:
FIGS. 3A-3B. Cy5-MUB70 colonic mucus binding property. (FIG. 3A) HT-29 MTX living cells were incubated for 2 h with Cy5-MUB70 in a serum-free media. The resulting fluorescent signal (red) was visualized at the surface of the cell layer using an epifluorescent microscope. Z-projection, performed using ImageJ software, allowed 3D localization of Cy5-MUB70 fluorescence signal in the mucus layer. Bar is 10 μm (FIG. 3B) MPE and SHG imaging of the binding of Cy5-MUB70 to the human colonic mucus. […] Human tissue autofluorescence is detected in the same red channel as Cy5.
FIGS. 8A-8D. (FIG. 8A) Cell toxicity of Cy5-MUB70 tested on HT-29-MTX and Hela epithelial cells. Cell survival was assessed using Sytoxgreen dye on cultures exposed to 1 μg/mL Cy5-MUB70 from 0 to 10 h, as indicated. […] Resulting fluorescent staining was assessed using a two-photons microscope (see Methods). Z-projection, performed using ImageJ software, allows 3D localization of Cy5-MUB70 fluorescence signal. […] Human tissue autofluorescence is detected in the same red channel as Cy5. […]
Two-photons microscopy imaging of live healthy human colonic segment was performed using a commercial laser-scanning microscope (LSM710, Meta, Zeiss, Germany). Tissue autofluorescence and Cy5-MUB70 (1 μg·ml^−1) were detected using multiphoton excitation (MPE, red) and collagen was detected using second harmonic generation (SHG, green). […]

B1: Cy5-MUB70: Cy5-labelled MUB70 polypeptide, labelled via Cy5 maleimide on N-terminal cysteine (conjugate)
peptide: CVHVQYIDGETDQMLRQDDLDGYTDETIPYSTAEGIKKFEGDGYELFKDNFPAGEKFDNDDTNDQFYTVIF
As to B1, the PMN granule staining result in experiment [1] (PMN purified from human blood, fixed in 4% PFA, 1 μg/mL) is listed as “binding specifically a neutrophile granule component”. In addition, the “neutrophile staining in human blood sample” value in experiment [1] (ethanol 100% fixed blood sample) is “Signal was detected as diffused in neutrophile cytoplasm”. Moreover, the “incubation time after which probe is widely detected in mucus layer” value in experiment [2] (1 mm thick mucus layer, human colon explant) is 90 min. In experiment [2] (ex vivo, 1 μg/mL, mucus width around 1000 μm, epithelium and lamina propria unstained), the “mucus layer staining on human colon explants” value was “stained heterogeneously on the whole width”.
